# Data: FireProtDB (doi:10.1002/prot.340080106)
# B1: Protein S100-G wild type, P02633 (protein)
# chain: MSAKKSPEELKGIFEKYAAKEGDPNQLSKEELKLLLQTEFPSLLKGPSTLDELFEELDKNGDGEVSFEEFQVLVKKISQ
# Details: Bos taurus; pH 7; 25 °C; Urea; CD; PIPES-KOH 20 mM; reversible: yes; whole UniProt chain shown
protein,measurement,value
B1,denaturant midpoint (higher = more stable),5.3 M
same,unfolding free energy,0.29 kcal/mol
